Test results as given in patent US20190300897A1 (INSTITUTE OF GENETICS AND DEVELOPMENTAL BIOLOGY CHINESE …, published 2019).

Biological target: T1, MBP-DA2 (Arabidopsis, UniProt Q93YV5 1-401)
T1 construct: Used as bacterial lysate and held on amylose resin; also called DA2 expressed as a MBP fusion protein; DA2-MBP
T1 sequence: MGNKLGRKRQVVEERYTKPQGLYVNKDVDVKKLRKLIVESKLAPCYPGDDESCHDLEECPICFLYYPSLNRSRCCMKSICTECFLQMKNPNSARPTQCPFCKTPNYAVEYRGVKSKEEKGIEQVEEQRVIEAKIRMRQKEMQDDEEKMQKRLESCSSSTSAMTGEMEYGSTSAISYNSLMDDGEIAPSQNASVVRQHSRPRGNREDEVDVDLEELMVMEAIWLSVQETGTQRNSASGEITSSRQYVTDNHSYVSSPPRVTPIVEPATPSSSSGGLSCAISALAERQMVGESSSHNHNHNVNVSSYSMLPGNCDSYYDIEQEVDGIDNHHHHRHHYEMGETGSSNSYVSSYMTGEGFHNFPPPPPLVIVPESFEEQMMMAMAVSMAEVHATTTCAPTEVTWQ
Experiment: in vitro pull-down on amylose resin, anti-GST immunoblot
Experimental: To test protein-protein interaction, bacterial lysates containing approximately 15 μg of MBP-DA2 fusion proteins were combined with lysates containing approximately 30 μg of GST-DA1, GST-DA1R358K, GST-DA1-UIM, GST-DA1-LIM, GST-DA1-LIM+C or GST-DA1-C fusion proteins. 20 μl amylose resin (New England Biolabs) was added into each combined solution with continued rocking at 4° C. for 1 hour. Beads were washed […] with TGH buffer, and the isolated proteins were separated on a 10% SDS-polyactyamide gel and detected by western blot analysis with anti-GST (Abmart) and anti-MBP antibodies (Abmart), respectively.

| Binder | binding result |
| --- | --- |
| GST-DA1-UIM (other, Only the part holding the two UIM domains was in the assay; not shown: glutathione S-transferase (GST) tag from vector pGEX-4T-1) MGWFNKIFKGSNQRLRVGNNKHNHNVYYDNYPTASHDDEPSAADTDADNDEPHHTQEPSTSEDNTSNDQENEDIDRAIALSLLEENQEQTSISGKYSMPVDEDEQLARALQESMVVGNSPRHKSGSTYDNGNAYGAGDLYGNGHMYGGGNVYANGDIYYPRPITFQMDF | no binding |
| GST-DA1-LIM (other, Only the LIM domain was in the assay; not shown: glutathione S-transferase (GST) tag from vector pGEX-4T-1) RICAGCNMEIGHGRFLNCLNSLWHPECFRCYGCSQPISEYEFSTSGNYPFHKACYRERYHP | no binding |
